Substitutions are numbered along the chain they refer to. Names may count otherwise.

The record followed here is patent US9296994B2, “Archease as RNA ligaes complex member” (IMBA—INSTITUT FÜR MOLEKULARE BIOTECHNOLOGIE GMBH, priority 2012, dated 2016).

Data set [1] concerns the target T1, FLAG-RTCB, the catalytic subunit of the human tRNA ligase (Homo sapiens, UniProt Q9Y3I0).
T1 construct: FLAG; made in house; host or cells: HEK293 cells (FLAG-RTCB)
In words: Assay to monitor Archease function and inhibition of RNA ligase activity (linear intron substrate). The format is biochemical. The following applies: FLAG-RTCB from HEK293 cells with His-tagged Archease, GTP or GMPcPP at 0.5 mM. As for the experimental part: FIG. 14: Assay to monitor inhibition of RNA ligase activity. […] The linear substrate (second from bottom to top) is converted into a circular product (bottom) or a concatemer (top), which is further circularized (third from bottom to top). Ligation only took place with wild-type Archease and GTP.
The RNA ligation activity of FLAG-RTCB, the catalytic subunit of the human tRNA ligase, was determined in the presence of wildtype or mutant (D39A) Archease with the addition of GTP or non-hydrolysable GMPcPP (5′-guanylylmethylenebisphosphonate). […] The reaction was carried out with FLAG-RTCB purified from HEK293 cells and hexahistidine tagged wild-type or mutant Archease. Furthermore, GTP or GMPcPP were used at 0.5 mM concentration. A linear intron derived from a radioactively labelled pre-tRNA that was transcribed with T7 polymerase and cleaved with recombinant tRNA endonuclease from Methanocaldococcus jannaschii served as substrate. Cleavage products were resolved on preparative denaturing polyacrylamide gels and the linear intron was eluted overnight and recovered by precipitation. With reference to FIG. 14, FLAG-RTCB and wild-type Archease in the presence of GTP are able to convert the linear substrate (second from bottom to top) into a circular product (bottom) or a concatemer (top), which is further circularized (third from bottom to top). This type of assay can be used to validate candidate inhibitors of the Archease or even the ligase or to screen compound libraries in order to find inhibitory molecules.

The test system of data set [2] is pre-cleaved tRNA substrates. The experiment in a line: RNA ligase activity assay of affinity-purified FLAG-tagged Archease on pre-cleaved tRNA substrates. Particulars: FLAG immuno-precipitate. The format is biochemical, human. As to the method: A) Coomassie Blue stained preparations of FLAG-tagged Archease and HSPC117 affinity purified at 150 mM NaCl. B) RNA ligase activity assay of FLAG-HSPC117 and FLAG-Archease using pre-cleaved tRNA substrates. Extracts of HEK 293 cells were used as a negative control. * Indicates unspecific products.
Stable cell lines expressing a FLAG-tagged version of Archease and HSPC117 were generated to perform immuno-precipitations. Fluted FLAG-Archease was assayed for tRNA ligation in parallel with FLAG-HSPC117, which contains the entire tRNA ligase complex.

Data set [3] relates to cleaved Xbp1 RNA minimal substrate. In words: In vitro Xbp1 splicing (exon ligation) assay with Ire1 pre-cleaved Xbp1 RNA. Particulars: for Stimulation of ligation of Xbp1 RNA minimal substrates by affinity purified human tRNA ligase complex: addition of recombinant protein. The format is biochemical, human. From the text:
FIG. 8: The human tRNA ligase HSPC117 and Archease are both required for non-conventional splicing of Xbp1 mRNA during the Unfolded Protein Response (UPR). A) Experimental outline for in vitro splicing assay. B) An internally labeled fragment of Xbp1 mRNA was pre-cleaved with recombinant Ire1 endonuclease and supplemented with buffer or HeLa whole-cell extract (wce) for the indicated time points to allow ligation of exon halves. Formation of splice product is specific to the presence of both Ire1 and cell extract. Lanes marked “unspliced” and “spliced” contain control transcripts to mark the size of the splice product. C) HSPC117 and Archease both contribute to non-conventional splicing. 3′ end labeled Xbp1 was pre-cleaved with Ire1 and supplemented with whole-cell extract from HeLa cells treated with siRNAs as indicated above the lanes. Cell extracts were harvested 72 hrs post transfection. D) Ligase activity for non-conventional splicing resides in HSPC117 but not in Archease. In vitro splicing assay using 3′end labeled Xbp1 carried out using whole cell extract (input) or FLAG-IP from HEK293 cells stably expressing FLAG-HSPC117, FLAG-Archease or FLAG-DDX1. Ligation activity is only found in IPs of integral members of the tRNA ligase complex. E) Non-conventional splicing activity is stimulated by addition of Archease. Splicing assay using 3′ end labeled Xbp1 carried out as above with addition of buffer or recombinant protein as indicated above the lanes. […] Bovine Serum Albumine (BSA) was included as control.
For the splicing assay RNA was prepared by T7-transcrition from PCR product containing spliced and unspliced form of human Xbp1. Substrates were labelled internally using a-GTP and at the 3′end using ligation to pCp. Substrate was pre-cleaved with recombinant Ire1 for 5 mins in tRNA ligation buffer with subsequent addition of protein extract of FLAG-IP eluate to total volume of 5 μl. Samples were treated with proteinase K and phenol-chloroform extracted prior to loading on 10% PAGE gel.
Perturbation of normal ER function causes mis- or unfolded proteins to accumulate leading to activation of the unfolded protein response (UPR). One of three UPR pathway inducers in mammals, the ER transmembrane protein Ire1, cleaves the Xbp1 mRNA specifically to remove a 26 nt intron (FIG. 8A). […] None of the additional four components of the tRNA ligase complex were required for ligation in agreement with previous findings (WO 2012/28606). […] The reduced ligation activity seen in Archease-depleted extracts raised the question whether Archease is an RNA ligase or rather acts to stimulate the ligation activity of other ligases. To address this question stable cell lines expressing FLAG-tagged versions of HSPC117, Archease, and DDX1 (a DEAD-box helicase component of the human tRNA ligase complex) were generated and the Xbp1 ligation assay using FLAG-IPs was performed.
To further address the stimulatory activity of Archease both HSPC117 and Archease were depleted by RNAi and then an Archease rescue-construct containing either WT or MUT Archease was introduced.

Data set [4] has as its target T2, human tRNA ligase complex (Homo sapiens, UniProt Q9Y3I0).
T2 construct: FLAG; made in house; Archease expressed in E. coli
The experiment in a line: RNA ligation assay with affinity-purified tRNA ligase complex and added recombinant Archease. The format is biochemical. Particulars: pre-cleaved tRNA substrates or linear intron; time course. As to the method:
FIG. 3: Archease boosts RNA ligation by the human tRNA ligase complex. A) Time-course ligation assay with affinity-purified tRNA ligase complex and pre-cleaved tRNA substrates in absence or presence of recombinant Archease. B) Time course ligation assay with affinity purified tRNA ligase complex and isolated linear introns (2.5 μM) in absence or presence of recombinant Archease (8.5 μM) expressed in E. coli. The signals corresponding to the concatemerized intron were quantified and plotted as fraction of the total signal detectable in the respective lane.
FIG. 6: The point mutations D39A and K144A abolish the function of Archease in RNA ligation. A) Time-course of ligation activity of FLAG-HSPC117 complexes upon addition of recombinant wild-type or mutant Archease (15 μM). B) SDS-PAGE analysis of purified recombinant wild-type and mutant Archease.
Addition of Archaease influences ligase activity of affinity purified human tRNA ligase complexes.
To study the function of Archease the available NMR structure from the euryarchaeote Methanothermobacter thermautotrophicus (Yee et al., 2002) (36% identical to human protein) was used and aspartic acid (D) 39 and lysine (K) 144, both extremely conserved residues, were replaced by alanines (D39A; K144A) (FIG. 5). Wild-type and mutant versions of Archease were over-expressed in […] and tRNA ligase activity was measured. […] FIG. 6B confirms equal concentrations of recombinant proteins added to the reactions.

T2 sequence (Q9Y3I0 whole entry): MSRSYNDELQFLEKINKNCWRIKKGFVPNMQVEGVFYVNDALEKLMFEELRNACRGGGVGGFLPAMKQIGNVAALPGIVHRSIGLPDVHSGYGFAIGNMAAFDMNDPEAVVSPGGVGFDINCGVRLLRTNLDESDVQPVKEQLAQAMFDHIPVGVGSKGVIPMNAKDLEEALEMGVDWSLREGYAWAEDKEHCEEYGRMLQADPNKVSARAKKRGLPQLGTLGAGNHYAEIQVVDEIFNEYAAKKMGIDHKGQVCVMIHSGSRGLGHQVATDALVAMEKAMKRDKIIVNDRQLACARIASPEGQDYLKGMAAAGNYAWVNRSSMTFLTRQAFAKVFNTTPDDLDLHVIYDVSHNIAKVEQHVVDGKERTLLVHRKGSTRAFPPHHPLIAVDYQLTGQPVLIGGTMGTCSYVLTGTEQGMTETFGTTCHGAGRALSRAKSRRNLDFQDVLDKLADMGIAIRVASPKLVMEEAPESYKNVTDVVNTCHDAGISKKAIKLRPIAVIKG
T2 sequence (Q92499 whole entry partner): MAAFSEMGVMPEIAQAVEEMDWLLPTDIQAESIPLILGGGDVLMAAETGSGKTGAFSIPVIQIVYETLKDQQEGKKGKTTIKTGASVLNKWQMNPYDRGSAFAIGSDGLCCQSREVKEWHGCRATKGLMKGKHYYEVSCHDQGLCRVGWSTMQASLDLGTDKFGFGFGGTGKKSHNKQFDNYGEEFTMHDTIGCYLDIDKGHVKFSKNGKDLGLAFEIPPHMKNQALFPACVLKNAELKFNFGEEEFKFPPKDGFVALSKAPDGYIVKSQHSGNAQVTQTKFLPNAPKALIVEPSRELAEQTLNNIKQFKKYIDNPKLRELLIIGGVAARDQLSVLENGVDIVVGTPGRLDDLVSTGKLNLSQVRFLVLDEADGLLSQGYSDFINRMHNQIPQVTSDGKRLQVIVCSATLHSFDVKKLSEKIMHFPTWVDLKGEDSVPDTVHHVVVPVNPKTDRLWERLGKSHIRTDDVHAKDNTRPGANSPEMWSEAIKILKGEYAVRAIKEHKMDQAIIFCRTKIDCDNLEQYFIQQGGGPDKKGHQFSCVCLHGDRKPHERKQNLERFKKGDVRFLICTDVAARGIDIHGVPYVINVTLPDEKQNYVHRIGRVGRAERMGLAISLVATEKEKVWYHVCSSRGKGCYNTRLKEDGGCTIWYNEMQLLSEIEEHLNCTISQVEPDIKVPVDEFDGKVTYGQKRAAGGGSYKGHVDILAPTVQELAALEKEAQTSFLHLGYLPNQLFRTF
T2 sequence (Q52LJ0 whole entry partner): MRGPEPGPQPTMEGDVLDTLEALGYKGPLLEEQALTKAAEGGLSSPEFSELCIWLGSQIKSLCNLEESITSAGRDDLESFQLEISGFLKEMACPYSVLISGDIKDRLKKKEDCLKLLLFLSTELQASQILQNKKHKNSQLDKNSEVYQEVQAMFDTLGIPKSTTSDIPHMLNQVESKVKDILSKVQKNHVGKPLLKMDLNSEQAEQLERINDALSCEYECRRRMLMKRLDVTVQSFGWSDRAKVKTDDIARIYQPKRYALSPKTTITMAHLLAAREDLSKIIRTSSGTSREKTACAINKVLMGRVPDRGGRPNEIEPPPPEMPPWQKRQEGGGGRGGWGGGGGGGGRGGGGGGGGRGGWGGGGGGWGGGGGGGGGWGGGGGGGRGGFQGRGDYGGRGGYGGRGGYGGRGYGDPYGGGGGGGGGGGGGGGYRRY
T2 sequence (Q9BVC5 whole entry partner): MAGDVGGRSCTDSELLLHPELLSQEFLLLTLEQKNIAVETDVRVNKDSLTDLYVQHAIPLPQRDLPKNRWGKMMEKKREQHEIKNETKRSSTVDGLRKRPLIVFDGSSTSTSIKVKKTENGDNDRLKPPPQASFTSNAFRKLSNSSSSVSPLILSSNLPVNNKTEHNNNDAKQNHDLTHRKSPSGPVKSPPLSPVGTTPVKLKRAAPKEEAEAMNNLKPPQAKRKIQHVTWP
T2 sequence (Q9Y224 whole entry partner): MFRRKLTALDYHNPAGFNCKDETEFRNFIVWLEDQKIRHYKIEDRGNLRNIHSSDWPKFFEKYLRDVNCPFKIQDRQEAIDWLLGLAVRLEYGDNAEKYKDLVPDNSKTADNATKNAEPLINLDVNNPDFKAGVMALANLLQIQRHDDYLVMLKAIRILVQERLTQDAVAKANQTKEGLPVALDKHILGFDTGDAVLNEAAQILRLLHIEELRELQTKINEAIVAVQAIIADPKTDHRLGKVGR
T1 sequence (Q9Y3I0 whole entry): as the sequence (Q9Y3I0 whole entry) above
T1 sequence (Q92499 whole entry partner): as the sequence (Q92499 whole entry partner) above
T1 sequence (Q52LJ0 whole entry partner): as the sequence (Q52LJ0 whole entry partner) above
T1 sequence (Q9BVC5 whole entry partner): as the sequence (Q9BVC5 whole entry partner) above
T1 sequence (Q9Y224 whole entry partner): as the sequence (Q9Y224 whole entry partner) above

Take `Nc1nc2c(ncn2[C@@H]2O[C@H](COP(=O)(O)CP(=O)(O)OP(=O)(O)O)[C@@H](O)[C@H]2O)c(=O)[nH]1` [GMPcPP, 5′-guanylylmethylenebisphosphonate]: the “RNA ligation activity of FLAG-RTCB” value in data set [1] was “strongly inhibits the ligation reaction”; in data set [1] (listed as GMPCPP) it was “inhibits the reaction”.

B1: FLAG-tagged Archease: FLAG-tagged version of Archease affinity purified from stable cell lines (protein)
chain: MAQEEEDVRDYNLTEEQKAIKAKYPPVNRKYEYLDHTADVQLHAWGDTLEEAFEQCAMAMFGYMTDTGTVEPLQTVEVETQGDDLQSLLFHFLDEWLYKFSADEFFIPREVKVLSIDQRNFKLRSIGWGEEFSLSKHPQGTEVKAITYSAMQVYNEENPEVFVIIDI
modifications: left off: small tags and cut ends
On to B1, for which the “RNA ligase activity of the affinity-purified protein itself” value in data set [2] is reported as “RNA ligase activity was only detectable in reactions containing affinity-purified RNA ligase complex but not FLAG-tagged Archease”. Also, in data set [3] (FLAG-IP from stable HEK293 cells), the “Xbp1 ligation activity of FLAG-IP” value is given as “no ligation was detected”.

B2: K144A: Archease point mutant, lysine 144 replaced by alanine; inactive (protein, listed as Homo sapiens)
chain: B1 chain with K144A
With B2, the “RNA ligase activity of affinity purified tRNA ligase complex upon addition of recombinant Archease” value in data set [4] is “neither of the mutant versions of Archease stimulated the low levels of ligation”. Also, the “Stimulation of ligation of Xbp1 RNA minimal substrates by affinity purified human tRNA ligase complex” value in data set [3] was “inactive”.

B3: D39A: Archease point mutant, aspartic acid 39 replaced by alanine; inactive (protein, listed as Homo sapiens)
chain: B1 chain with D39A
Take B3: the “RNA ligase activity of affinity purified tRNA ligase complex upon addition of recombinant Archease” value in data set [4] is reported as “neither of the mutant versions of Archease stimulated the low levels of ligation”. Moreover, in data set [3], the “Stimulation of ligation of Xbp1 RNA minimal substrates by affinity purified human tRNA ligase complex” value was “inactive”.
